Article PMC7367873, “Dissecting the sequence determinants for dephosphorylation by the catalytic subunits of phosphatases PP1 and PP2A” (Nature Communications, 2020)

Target: T1, PP2Ac (Homo sapiens, UniProt P67775)
T1 construct: purchased Cayman Chemical 10011237
Assay: Phosphoproteome dephosphorylation assay of HeLa Kyoto lysate with recombinant PP2Ac (TMT phosphoproteomics)
Type: biochemical
Details: 1 µM recombinant phosphatase, 1 h at 30 °C, 20 nM Calyculin A, three replicates
Experimental: For phosphoproteomics, HeLa Kyoto cells were incubated with 20 nM Calyculin A (CST, #9902) for 10–15 min. This time point was determined empirically to yield maximal phosphatase inhibition without cells showing pleiotropic effects. Subsequently, cells were placed on ice and washed twice with cold PBS and scraped in lysis buffer (100 mM NaCl, 10 mM Tris, 0.1% IGEPAL, 1 mM EDTA, 1 mM EGTA, 20 nM Calyculin A, 1x cOmplete Mini protease inhibitor cocktail (Sigma), 1 mM DTT, 1 mM MnCl2, pH 7.5). After 10 pushes through an injection needle (21 G, BD), lysate was cleared from the insoluble fraction by centrifugation (10 min, 10^4 rcf, 4 °C). Protein concentration was then determined by a Bradford Assay and equal amounts of 1 mg total protein were incubated with recombinant PP1c/PP2Ac or buffer at a final phosphatase concentration of 1 µM in a total volume of 200 µL for 1 h at 30 °C. Lysates were then immediately placed on ice. PhosStop […] (Roche) was added and proteins were denatured by adding urea to a final concentration of 8 M taking into account the volume increase. Samples were then snap-frozen in liquid nitrogen for storage and subsequent MS analysis.
Treated lysates were reduced (10 mM DTT, 30 °C, 30 min) and alkylated (50 mM chloroacetamide, room temperature, 30 min, in the dark), and then diluted to 1.3 M urea using 40 mM Tris-HCl (pH 7.6). […]

T1 sequence (P67775 1-308 limits assumed): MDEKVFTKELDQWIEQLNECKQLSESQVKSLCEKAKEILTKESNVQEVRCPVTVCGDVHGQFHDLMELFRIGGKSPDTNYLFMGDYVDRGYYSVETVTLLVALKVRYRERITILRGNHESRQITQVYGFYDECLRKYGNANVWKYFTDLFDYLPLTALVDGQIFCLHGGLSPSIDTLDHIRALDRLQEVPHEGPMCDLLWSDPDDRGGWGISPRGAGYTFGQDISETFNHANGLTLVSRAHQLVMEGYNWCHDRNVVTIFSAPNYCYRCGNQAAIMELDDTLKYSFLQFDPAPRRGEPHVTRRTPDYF

- number of class I p-sites dephosphorylated by PP2A: 1840 p-sites
Substance: PP2Ac: His-tagged recombinant PPP2CA ΔL309, purchased from Cayman Chemical
